Measured values: publication PMC3618186 (2013)

Biological target: the molecule itself
Test: sedimentation equilibrium AUC

B1: p150Glued CC1 CC1 (protein)
chain: SKEEEGLRAQVRDLEEKLETLRLKRAEDKAKLKELEKHKIQLEQVQEWKSKMQEQQADLQRRLKEARKEAKEALEAKERYMEEMADTADAIEMATLDKEMAEERAESLQQEVEALKERVDELTTDLEILKAEIEEKGSDGAASSYQLKQLEEQNARLKDALVRMRDLSSSEKQEHVKLQKLMEKKNQELEVVRQQRERLQEELSQAESTIDELKEQVDAALGAEEMVEMLTDRNLNLEEKVRELRETVGDLEAMNEMNDELQENARETELELREQLDMAGARVREAQKRVEAAQETVADYQQTIKKYRQLTAHLQDVNRELTNQQEASVERQQQ
Kd: < 1 nM
